From US7429385

Target: MOLT4 receptor (putative E2 receptor on human lymphoma T-cells, MOLT-4 cells) (human)
Test: cytofluorimetric binding assay on MOLT-4 cells

intracellularly produced truncated HCV E2 terminating at amino acid 715 (E2715), from CHO cell lysate (from UniProt P26664 384-715)
fold more efficient binding to MOLT-4 cells than secreted E2: 30 fold
